From publication PMC8216847

Biological target: SARS-HCoV-2 S2 extra-cellular domain (SARS-CoV-2)

CV3-25 (antibody)
IC50 of neutralisation of SARS-CoV-2 pseudovirus on HEK293T-hACE2 cells: 0.34 µg/mL
